{"source": "patent US20040009147A1", "about": "(Human Genome Sciences, published 2004)", "target": "T1, mouse AIM II (LIGHT), membrane-bound (mouse, UniProt Q9QYH9 1-239)", "T1 construct": "whole, on cells; On human 293 cells transfected with pmAIM II (flow cytometry); also called mAIM II; pmAIM II-transfected 293 cells", "T1 sequence (looked up)": "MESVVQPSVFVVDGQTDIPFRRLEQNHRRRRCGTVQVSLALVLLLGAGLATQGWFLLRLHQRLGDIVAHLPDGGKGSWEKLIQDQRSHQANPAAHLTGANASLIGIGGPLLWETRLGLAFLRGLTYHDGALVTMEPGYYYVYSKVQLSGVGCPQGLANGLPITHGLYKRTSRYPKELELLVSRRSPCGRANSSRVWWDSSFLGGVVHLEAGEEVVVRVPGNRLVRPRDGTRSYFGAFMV", "assay": "flow cytometry, mouse LTβR-Ig (1 µg in 50 µl) on 293 cells transfected with pmAIM II, FITC goat anti-human IgG", "protocol": "Flow cytometric analysis. Human 293 cells (1×10⁶ cells) were transfected with either mouse AIM II pcDNA3 vector (10μg) or mock vector (10 μg) by calcium phosphate methods. After 30 hr of transfection, 293 cells were harvested and stained with 1 μg of mouse LTβR-Ig or the anti-AIM II antibody in 50 μl of PBS supplemented with 5% FBS and 0.02% azide for 30 min at 4° C. The cells were then washed and further incubated with FITC-conjugated anti-human IgG or anti-rabbit IgG for 30 min at 4° C., respectively. Fluorescence was analyzed by a FACSCalibur flow cytometry (Becton Dickinson, Mountain View, Calif.) with Cell Quest software (Becton Dickinson)."}
{"binder": "mouse LTβR-Ig fusion protein (mouse LTβR extracellular domain fused to the Fc portion of human IgG1) (Fc fusion, UniProt P50284 31-223, looked up, extracellular domain; Made in BHK/VP16 cells, purified on Protein A; not shown: Fc portion of human IgG1 (vector pX58)) QLVPPYRIENQTCWDQDKEYYEPMHDVCCSRCPPGEFVFAVCSRSQDTVCKTCPHNSYNEHWNHLSTCQLCRPCDIVLGFEEVAPCTSDRKAECRCQPGMSCVYLDNECVHCEEERLVLCQPGTEAEVTDEIMDTDVNCVPCKPGHFQNTSSPRARCQPHTRCEIQGLVEAAPGTSYSDTICKNPPEPGAMLL", "values": [{"measurement": "binding result", "result": "binds"}]}
